Experimental data as given in US20220348652A1 (ANTAIMMU BIOMED, published 2022).
Where a chain is given by its changes, count along the chain named. Each block holds one binder with its values, some of them ahead of it.

Target: T1, human CD47 expressed on CHO-CD47 cells (human, UniProt Q08722 19-323)
T1 construct: whole, on cells; also called cellular CD47; full-length CD47
Test: flow cytometry, IgG on CHO-CD47 cells
Protocol: The anti-CD47 scFvs were respectively expressed in their IgG formats in accordance with the procedure described in Materials and Methods. CHO cells expressing CD47 (CHO-CD47 cells) and wild-type CHO cells (CHO-WT cells) were respectively treated with anti-CD47 IgGs. After washing, the binding of the anti-CD47 IgGs was detected using a polyclonal APC-conjugated anti-human IgG antibody. Relative MFI was measured by flow cytometry. Antibody R23, a reference antibody constructed according to the sequences of ADI29341 disclosed in US20200181259A1, served as a positive control in this study.

EC50: 2.05 µg/mL
B1: CD47-26 IgG (antibody, V domains shown)
VH: EVQLVESGGGLVQPGGSLRLSCAASGFTITNFYIHWVRQAPGKGLEWVAKITPYNGDTHYADSVKGRFTISADTSKNTAYLQMNSLRAEDTAVYYCTRGGYAMDYWGQGTLVTVSS
VL: DIQMTQSPSSLSASVGDRVTITCRASQDVSNYVAWYQQKPGKAPKLLIYGTSRLYPGVPSRFSGSGSGTDFTLTISSLQPEDFATYYCQQHSSYPLTFGQGTKVEIKR
notes: IgG made in CHO cells; constant domains as for m19; also called antibody CD47-26

EC50: 2.67 µg/mL
B2: CD47-30 IgG (antibody, V domains shown)
VH: EVQLVESGGGLVQPGGSLRLSCAASGFTINNWWIHWVRQAPGKGLEWVAWIDPFNGDSDYADSVKGRFTISADTSKNTAYLQMNSLRAEDTAVYYCARGGFALDHWGQGTLVTVSS
VL: B1 VL with N31H, G50S, L96I
notes: IgG made in CHO cells; constant domains as for m19; also called antibody CD47-30
